Laboratory results as given in patent US20260125457A1 (Janssen / Centocor, published 2026).

What was measured:
[1] = biological target: T1, CD3EG-HSA-6xHis (CD3W220.002) (human, UniProt P07766 22-118; P09693 23-103); assay: SPR, forced degradation: Chem Ox
T1 construct: also called human CD3; not shown: human serum albumin (HSA); 6xHis tag

[2] = biological target: T2, Flag/6xhis-CALRdel52 (CALRW12.007) (human, UniProt P27797 18-417); assay: SPR, forced degradation: Chem Ox
T2 construct: also called human CALRdel52
T2 sequence (looked up): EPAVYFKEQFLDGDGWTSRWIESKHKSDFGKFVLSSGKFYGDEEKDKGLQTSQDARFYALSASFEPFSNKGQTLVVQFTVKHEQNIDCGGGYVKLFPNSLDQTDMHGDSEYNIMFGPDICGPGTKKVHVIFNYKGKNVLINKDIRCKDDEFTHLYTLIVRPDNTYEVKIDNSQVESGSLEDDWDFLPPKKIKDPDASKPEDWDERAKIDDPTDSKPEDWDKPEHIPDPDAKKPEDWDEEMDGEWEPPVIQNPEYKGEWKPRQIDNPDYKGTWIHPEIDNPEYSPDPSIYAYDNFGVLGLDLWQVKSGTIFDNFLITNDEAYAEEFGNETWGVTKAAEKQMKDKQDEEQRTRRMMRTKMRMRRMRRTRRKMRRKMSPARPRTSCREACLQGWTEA

[3] = biological target: T3, Avi/his-CalR-Ins5 (CALRW28.004) (human, UniProt P27797 18-417, limits assumed); assay: SPR, forced degradation: Chem Ox
T3 construct: also called human CALRins5
T3 sequence (looked up): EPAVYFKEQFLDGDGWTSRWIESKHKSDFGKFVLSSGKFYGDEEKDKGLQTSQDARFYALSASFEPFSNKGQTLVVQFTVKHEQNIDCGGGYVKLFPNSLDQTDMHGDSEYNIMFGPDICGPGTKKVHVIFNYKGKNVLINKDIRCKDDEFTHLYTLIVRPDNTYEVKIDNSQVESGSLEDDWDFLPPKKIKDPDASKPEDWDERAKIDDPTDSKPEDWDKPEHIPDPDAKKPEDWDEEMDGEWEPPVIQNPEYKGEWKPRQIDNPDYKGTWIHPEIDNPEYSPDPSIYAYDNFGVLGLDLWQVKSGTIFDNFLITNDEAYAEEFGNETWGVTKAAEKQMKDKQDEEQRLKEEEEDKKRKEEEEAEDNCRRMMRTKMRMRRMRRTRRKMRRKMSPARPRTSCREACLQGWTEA

[4] = biological target: T4, thrombopoietin receptor (MPL) on cells without CALRmut (UniProt P40238 26-635, limits assumed); assay: flow cytometry on ELF-153 MPL cells, 1 h at 37 C, AF647 secondary antibody, Geometric Mean
T4 construct: whole, on cells; endogenous on healthy donor CD34+ cells; also called TPOR
T4 sequence (looked up): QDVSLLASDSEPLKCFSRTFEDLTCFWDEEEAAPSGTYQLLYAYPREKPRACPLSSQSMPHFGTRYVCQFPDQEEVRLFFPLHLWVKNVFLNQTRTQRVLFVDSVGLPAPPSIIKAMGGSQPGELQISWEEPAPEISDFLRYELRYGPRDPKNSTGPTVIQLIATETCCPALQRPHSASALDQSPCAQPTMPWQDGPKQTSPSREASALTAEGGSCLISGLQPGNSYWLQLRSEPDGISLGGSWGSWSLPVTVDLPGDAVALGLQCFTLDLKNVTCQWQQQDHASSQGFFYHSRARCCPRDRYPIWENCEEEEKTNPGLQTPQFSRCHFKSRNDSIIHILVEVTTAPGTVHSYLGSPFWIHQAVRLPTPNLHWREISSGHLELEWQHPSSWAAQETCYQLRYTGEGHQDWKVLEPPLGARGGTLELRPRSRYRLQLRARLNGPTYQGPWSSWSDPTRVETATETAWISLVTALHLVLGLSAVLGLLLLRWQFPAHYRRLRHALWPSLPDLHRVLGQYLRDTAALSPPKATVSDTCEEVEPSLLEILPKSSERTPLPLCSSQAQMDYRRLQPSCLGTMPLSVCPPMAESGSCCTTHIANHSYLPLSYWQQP

[5] = biological target: T5, CD3 on primary human pan T cells (human, UniProt P07766 23-207); assay: flow cytometry on pan CD3 T cells, 1 h at 37 C, AF647 secondary antibody, Geometric Mean
T5 construct: whole, on cells; also called CD3e; CD3ε
T5 sequence (P07766 23-207): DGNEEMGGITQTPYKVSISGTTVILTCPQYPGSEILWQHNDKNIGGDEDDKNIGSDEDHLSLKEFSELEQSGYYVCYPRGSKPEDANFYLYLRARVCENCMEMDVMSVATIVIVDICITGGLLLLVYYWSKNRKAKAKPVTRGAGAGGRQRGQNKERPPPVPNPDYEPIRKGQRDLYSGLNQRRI
Description: FIG. 22 depicts binding of different CALRmutxCD3 bispecific antibodies to pan CD3 T cells. Flow cytometry was used to evaluate CALRmutxCD3 binding to pan CD3 T cells in vitro, by 1 hour 37° C. incubation, with subsequent incubation with secondary AF647-labeled antibody. Geometric mean fluorescence intensity of AF647 was measured to determine antibody binding.
Flow cytometry was used to evaluate the CD3 arm binding of CALRmutxCD3 antibodies listed in Table 21 to CD3+ pan T cells from healthy human donor. CALRmutxCD3 were tested after 1 hour 37° C. incubation with pan T cells.

[6] = biological target: T1, CD3EG-HSA-6xHis (CD3W220.002); assay: SPR
[7] = biological target: T2, Flag/6xhis-CALRdel52 (CALRW12.007); assay: SPR
[8] = biological target: T3, Avi/his-CalR-Ins5 (CALRW28.004); assay: SPR
[9] = biological target: T1, CD3EG-HSA-6xHis (CD3W220.002); assay: SPR, forced degradation: pH 8.5
[10] = biological target: T2, Flag/6xhis-CALRdel52 (CALRW12.007); assay: SPR, forced degradation: pH 8.5
[11] = biological target: T3, Avi/his-CalR-Ins5 (CALRW28.004); assay: SPR, forced degradation: pH 8.5

T1 sequence (P07766 other isoform, or with tags, fused parts or gaps): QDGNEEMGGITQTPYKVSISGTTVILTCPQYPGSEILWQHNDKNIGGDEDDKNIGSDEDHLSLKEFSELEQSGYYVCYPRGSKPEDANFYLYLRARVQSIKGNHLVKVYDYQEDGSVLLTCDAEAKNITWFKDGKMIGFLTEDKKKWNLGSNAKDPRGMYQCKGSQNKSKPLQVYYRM

B1: C3CRB73 CALRmut x CD3 bispecific antibody (bispecific antibody, human IgG1, kappa, L234A L235A)
heavy: EVQLLESGGGLVQPGGSLRLSCAVSGIDLSNNAISWVRQAPGKGLEYVGVIGNTGDTYYADSAKGRFTISRDSSKTTLYLQMNSLRAEDTAVYFCVRGPPSYSSSVKNIWGQGTLVTVSSASTKGPSVFPLAPSSKSTSGGTAALGCLVKDYFPEPVTVSWNSGALTSGVHTFPAVLQSSGLYSLSSVVTVPSSSLGTQTYICNVNHKPSNTKVDKKVEPKSCDKTHTCPPCPAPEAAGGPSVFLFPPKPKDTLMISRTPEVTCVVVSVSHEDPEVKFNWYVDGVEVHNAKTKPREEQYNSTYRVVSVLTVLHQDWLNGKEYKCKVSNKALPAPIEKTISKAKGQPREPQVYTLPPSREEMTKNQVSLSCAVKGFYPSDIAVEWESNGQPENNYKTTPPVLDSDGSFFLVSKLTVDKSRWQQGNVFSCSVMHEALHNRFTQKSLSLSPGK
light: DIQMTQSPSSVSASVGDRVTITCQSSQSVYNNNWLSWLQQKPGKAPKRLIYDASKLESGVPSRFSGSGSGTDFTLTISSVQPEDAATYYCAGGFTGNVYTFGGGTKVEIKRTVAAPSVFIFPPSDEQLKSGTASVVCLLNNFYPREAKVQWKVDNALQSGNSQESVTEQDSKDSTYSLSSTLTLSKADYEKHKVYACEVTHQGLSSPVTKSFNRGEC
scFv: DIQMTQSPSSLSASVGDRVTITCRARQSIGTAIHWYQQKPGCAPKLLIKYASESISGVPSRFSGSGSGTDFTLTISSLQPEDFATYYCQQSGSWPYTFGQGTKLEIKGGGSGGSGGCPPCGGSGGEVQLVESGGGLVKPGGSLRLSCAASGFTFSRYNMNWVRQAPGKGLEWVSSISTSSNYIYYADSVKGRFTFSRDNAKNSLDLQMSGLRAEDTAIYYCTRGWGPFDYWGCGTLVTVSSEPKSSDKTHTCPPCPAPEAAGGPSVFLFPPKPKDTLMISRTPEVTCVVVSVSHEDPEVKFNWYVDGVEVHNAKTKPREEQYNSTYRVVSVLTVLHQDWLNGKEYKCKVSNKALPAPIEKTISKAKGQPREPQVYTLPPSREEMTKNQVSLWCLVKGFYPSDIAVEWESNGQPENNYKTTPPVLDSDGSFFLYSKLTVDKSRWQQGNVFSCSVMHEALHNHYTQKSLSLSPGK
notes: IgG1-AAS; also called JNJ-88549968; CALRB421 Fab x CD3 spFv
% Active [1]: 95% | Kd [1]: 0.306 nM | % Active [2]: 94% | Kd [2]: 0.07 nM | % Active [3]: 94% | Kd [3]: 0.0408 nM | binding result [4]: no binding (tested: 100 nM) | EC50 (read off the curve) [5]: ~7 nM | Kd [6]: 0.214 nM | Kd [7]: 0.0602 nM | Kd [8]: 0.0331 nM | % Active [9]: 93% | Kd [9]: 0.28 nM | % Active [10]: 104% | Kd [10]: 0.251 nM | % Active [11]: 97% | Kd [11]: 0.0313 nM
